Reference: patent US20160193292A1 (CURATORS OF THE UNIVERSITY OF MISSOURI, published 2016)
Blank lines part the entries; values can stand above or below the binder they belong to.

B1: Plenty of SH3 domains (POSH) (other)
chain: MDESALLDLLECPVCLERLDASAKVLPCQHTFCKRCLLGIVGSRNELRCPECRTLVGSGVDELPSNILLVRLLDGIKQRPWKPGPGGGGGTTCTNTLRAQGSTVVNCGSKDLQSSQCGQQPRVQAWSPPVRGIPQLPCAKALYNYEGKEPGDLKFSKGDIIILRRQVDENWYHGEVSGVHGFFPTNFVQIIKPLPQPPPQCKALYDFEVKDKEADKDCLPFAKDDVLTVIRRVDENWAEGMLADKIGIFPISYVEFNSAAKQLIEWDKPPVPGVDTAECPSATAQSTSASKHPDTKKNTRKRHSFTSLTMANKSSQGSQNRHSMEISPPVLISSSNPTAAARISELSGLSCSAPSQVHISTTGLIVTPPPSSPVTTGPAFTFPSDVPYQAALGSMNPPLPPPPLLAATVLASTPSGATAAVAAAAAAAAAAGMGPRPVMGSSEQIAHLRPQTRPSVYVAIYPYTPRKEDELELRKGEMFLVFERCQDGWYKGTSMHTSKIGVFPGNYVAPVTRAVTNASQAKVSMSTAGQASRGVTMVSPSTAGGPTQKPQGNGVAGNPSVVPTAVVSAAHIQTSPQAKVLLHMSGQMTVNQARNAVRTVAAHSQERPTAAVTPIQVQNAACLGPASVGLPHHSLASQPLPPMAGPAAHGAAVSISRTNAPMACAAGASLASPNMTSAMLETEPSGRTVTILPGLPTSPESAASACGNSSAGKPDKDSKKEKKGLLKLLSGASTKRKPRVSPPASPTLDVELGAGEAPLQGAVGPELPLGGSHGRVGSCPTDGDGPVAAGTAALAQDAFHRKTSSLDSAVPIAPPPRQACSSLGPVMNEARPVVCERHRVVVSYPPQSEAELELKEGDIVFVHKKREDGWFKGTLQRNGKTGLFPGSFVENI
notes: Endogenous scaffold protein precipitated or detected in T-cell lysates (Co-IP, IP-FCM); also called Sh3Rf1
B3: JNK-interacting protein 1 (JIP-1) (other, UniProt Q9WVI9 1-707, looked up)
chain: MAERESGLGGGAASPPAASPFLGLHIASPPNFRLTHDISLEEFEDEDLSEITDECGISLQCKDTLSLRPPRAGLLSAGSSGSAGSRLQAEMLQMDLIDAAGDTPGAEDDEEEEDDELAAQRPGVGPPKAESNQDPAPRSQGQGPGTGSGDTYRPKRPTTLNLFPQVPRSQDTLNNNSLGKKHSWQDRVSRSSSPLKTGEQTPPHEHICLSDELPPQGSPVPTQDRGTSTDSPCRRSAATQMAPPSGPPATAPGGRGHSHRDRIHYQADVRLEATEEIYLTPVQRPPDPAEPTSTFMPPTESRMSVSSDPDPAAYSVTAGRPHPSISEEDEGFDCLSSPERAEPPGGGWRGSLGEPPPPPRASLSSDTSALSYDSVKYTLVVDEHAQLELVSLRPCFGDYSDESDSATVYDNCASASSPYESAIGEEYEEAPQPRPPTCLSEDSTPDEPDVHFSKKFLNVFMSGRSRSSSAESFGLFSCVINGEEHEQTHRAIFRFVPRHEDELELEVDDPLLVELQAEDYWYEAYNMRTGARGVFPAYYAIEVTKEPEHMAALAKNSDWIDQFRVKFLGSVQVPYHKGNDVLCAAMQKIATTRRLTVHFNPPSSCVLEISVRGVKIGVKADDALEAKGNKCSHFFQLKNISFCGYHPKNNKYFGFITKHPADHRFACHVFVSEDSTKALAESVGRAFQQFYKQFVEYTCPTEDIYLE
notes: Endogenous protein in T-cell lysates

What was measured:
Rac1 = Rac1 (UniProt P63001 1-189); assay: Co-IP with antibodies against Rac1 and immunoblot, OT-I blasts re-stimulated with OVA-Tet/α-CD28
Procedure: The beads were incubated with the lysates washed and probed with antibodies against the Co-IP target. The levels of associated molecules (secondary analyte/Co-IP target) were quantified relative to IP target (primary analyte/loading control). Specificity was determined by comparison to both isotype and negative control antibodies (FIG. 5 and FIG. 6). […] Shaded histogram represents the staining of an isotype control. […] These two negative controls were used to establish significance of shift above background.
Associated proteins were assessed by immunoblot.

[1] = molecular target: B3; assay: IP-FCM with α-JIP-1 beads in the presence of Tat-POSH
[2] = molecular target: B1; assay: IP-FCM with α-POSH beads, lysates of stimulated OT-I T cells
Procedure: Associated proteins were assessed by immunoblot. […] Data shown are representative of 6 independent experiments. […] Red histogram represents primary analyte and is shown to serve as a bead loading control.

[3] = molecular target: B1; assay: IP-FCM with α-POSH beads in the presence of Tat-POSH

- binding result [1]: binds
- binding result [2]: binds
B2: JNK1 (enzyme, UniProt Q91Y86 1-384, looked up)
chain: MSRSKRDNNFYSVEIGDSTFTVLKRYQNLKPIGSGAQGIVCAAYDAILERNVAIKKLSRPFQNQTHAKRAYRELVLMKCVNHKNIIGLLNVFTPQKSLEEFQDVYIVMELMDANLCQVIQMELDHERMSYLLYQMLCGIKHLHSAGIIHRDLKPSNIVVKSDCTLKILDFGLARTAGTSFMMTPYVVTRYYRAPEVILGMGYKENVDLWSVGCIMGEMVCHKILFPGRDYIDQWNKVIEQLGTPCPEFMKKLQPTVRTYVENRPKYAGYSFEKLFPDVLFPADSEHNKLKASQARDLLSKMLVIDASKRISVDEALQHPYINVWYDPSEAEAPPPKIPDKQLDEREHTIEEWKELIYKEVMDLEERTKNGVIRGQPSPLAQVQQ
notes: Endogenous protein in T-cell lysates; also called 46KD JNK1

- binding result [3]: binds
B4: MLK-3 (enzyme, UniProt Q80XI6 1-850, looked up)
chain: MEPLKNLFLKSPLGSWNGSGSGGGGGTGGVRPEGSPKATAAYANPVWTALFDYEPNGQDELALRKGDRVEVLSRDAAISGDEGWWAGQVGGQVGIFPSNYVSRGGGPPPCEVASFQELRLEEVIGIGGFGKVYRGSWRGELVAVKAARQDPDEDISVTAESVRQEARLFAMLAHPNIIALKAVCLEEPNLCLVMEYAAGGPLSRALAGRRVPPHVLVNWAVQIARGMHYLHCEALVPVIHRDLKSNNILLLQPIEGDDMEHKTLKITDFGLAREWHKTTQMSAAGTYAWMAPEVIKASTFSKGSDVWSFGVLLWELLTGEVPYRGIDCLAVAYGVAVNKLTLPIPSTCPEPFAQLMADCWAQDPHRRPDFASILQQLEALEAQVLREMPRDSFHSMQEGWKREIQGLFDELRAKEKELLSREEELTRAAREQRSQAEQLRRREHLLAQWELEVFERELTLLLQQVDRERPHVRRRRGTFKRSKLRARDGGERISMPLDFKHRITVQASPGLDRRRNVFEVGAGDSPTFPRFRAIQLEPTESGQTWGRQSPRRLEDSSNGERRACWAWGPSSPKPGEAQNGRRRSRMDEATWYLDSDDSSPLGSPSTPPALNGNPPRPSPEPEEPRRAGPTERGNSSGTPKLIQRALLRGTALLASLGLGRDLQPPGGLSRERGESPTAPPPAQMPSPCPPELPSTPLIRLSQTTPDAHSSPTPGPLLLDLGVPSGQPSAKSPRREETRGRTVSPPPGISRSAPGTPGTPRSPPLGLISRPRPSPLRSRIDPWSFVSAGPRPSPLPSPQPAPRRAPWTLFPDSDPFWDSPPANPFRGGSQDCRTQTKDMGAQAPWAPEAGP
notes: Endogenous protein in T-cell lysates; also called MAP3K protein MLK-3

Second part, the binder before the results:

Binder: B1
- binding result (Rac1): binds

Binder: B3
- binding result [2]: binds
